Laboratory results from patent publication US7867500B2, “Cofactor that modulates steroid receptor activities” (The United States of America as represented by the …, priority 2004, dated 2011).

T1: thyroid receptor β (TRβ) (Homo sapiens, UniProt P10828)
T1 construct: the whole cell actions of TIF2 with full length AR and TRβ; expressed in transfected cells; host or cells: CV-1
T1 sequence (P10828 1-461): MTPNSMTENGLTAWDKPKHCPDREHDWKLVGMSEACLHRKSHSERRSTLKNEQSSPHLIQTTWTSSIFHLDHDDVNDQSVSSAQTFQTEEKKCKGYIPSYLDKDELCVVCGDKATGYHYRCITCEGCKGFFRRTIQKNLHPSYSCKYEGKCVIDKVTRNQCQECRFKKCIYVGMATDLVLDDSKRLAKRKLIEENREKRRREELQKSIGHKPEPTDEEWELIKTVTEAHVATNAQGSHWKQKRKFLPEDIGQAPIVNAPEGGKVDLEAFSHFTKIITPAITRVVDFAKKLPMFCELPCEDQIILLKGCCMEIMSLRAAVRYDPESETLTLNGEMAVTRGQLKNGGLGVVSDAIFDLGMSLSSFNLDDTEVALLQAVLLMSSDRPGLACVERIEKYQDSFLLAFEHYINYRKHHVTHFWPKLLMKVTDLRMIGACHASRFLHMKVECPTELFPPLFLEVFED

T2: glucocorticoid receptor (GR) (Rattus norvegicus, UniProt P06536)
T2 sequence (P06536 1-795): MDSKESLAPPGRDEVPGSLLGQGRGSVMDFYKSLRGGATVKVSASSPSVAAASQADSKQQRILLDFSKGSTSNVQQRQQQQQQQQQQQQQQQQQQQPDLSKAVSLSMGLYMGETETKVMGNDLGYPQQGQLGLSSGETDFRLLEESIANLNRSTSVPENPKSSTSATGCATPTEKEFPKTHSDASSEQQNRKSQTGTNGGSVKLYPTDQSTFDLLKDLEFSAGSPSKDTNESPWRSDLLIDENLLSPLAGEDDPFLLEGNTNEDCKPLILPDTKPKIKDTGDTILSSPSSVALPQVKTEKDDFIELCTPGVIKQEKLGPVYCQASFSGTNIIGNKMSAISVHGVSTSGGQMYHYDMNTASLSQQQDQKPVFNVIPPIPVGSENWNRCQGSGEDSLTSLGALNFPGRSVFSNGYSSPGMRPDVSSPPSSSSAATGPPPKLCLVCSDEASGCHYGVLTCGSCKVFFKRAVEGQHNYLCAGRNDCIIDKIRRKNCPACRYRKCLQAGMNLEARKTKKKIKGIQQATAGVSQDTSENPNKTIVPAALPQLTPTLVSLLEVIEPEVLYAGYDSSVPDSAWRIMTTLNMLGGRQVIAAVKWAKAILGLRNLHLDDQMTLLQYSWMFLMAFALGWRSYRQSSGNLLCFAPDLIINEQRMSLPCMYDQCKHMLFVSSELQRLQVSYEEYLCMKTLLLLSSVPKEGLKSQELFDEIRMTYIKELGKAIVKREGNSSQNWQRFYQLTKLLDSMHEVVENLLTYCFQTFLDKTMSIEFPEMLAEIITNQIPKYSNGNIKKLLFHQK

T3: TIF2(1140C) (Homo sapiens, UniProt Q15596)
T3 construct: the PCR product of TIF2 with the TIF2-1140F and TIF2-1464R primers; expressed in transfected cells; host or cells: CV-1
T3 sequence (Q15596 1140-1464): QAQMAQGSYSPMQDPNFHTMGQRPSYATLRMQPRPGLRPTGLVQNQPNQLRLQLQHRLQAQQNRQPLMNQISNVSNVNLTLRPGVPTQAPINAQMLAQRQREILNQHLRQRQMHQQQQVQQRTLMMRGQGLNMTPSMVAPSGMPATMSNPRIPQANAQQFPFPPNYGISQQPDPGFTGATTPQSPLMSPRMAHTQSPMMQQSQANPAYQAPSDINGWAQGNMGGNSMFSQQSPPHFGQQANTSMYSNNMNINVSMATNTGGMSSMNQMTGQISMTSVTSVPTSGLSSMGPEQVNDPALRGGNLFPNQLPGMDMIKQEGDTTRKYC

B1: STAMP: SRC-1 and TIF2 Associated Modulatory Protein, 1277 amino acid human polypeptide, expressed from transfected plasmid (protein)
chain: MARDLEETASSSEDEEVISQEDHPCIMWTGGCRRIPVLVFHADAILTKDNNIRVIGERYHLSYKIVRTDSRLVRSILTAHGFHEVHPSSTDYNLMWTGSHLKPFLLRTLSEAQKVNHFPRSYELTRKDRLYKNIIRMQHTHGFKVFHILPQTFLLPAEYAEFCNSYSKDRGPWIVKPVASSRGRGVYLINNPNQISLEENILVSRYINNPLLIDDFKFDVRLYVLVTSYDPLVIYLYEEGLARFATVRYDQGAKNIRNQFMHLTNYSVNKKSGDYVSCDDPEVEDYGNKWSMSAMLRYLKQEGRDTTALMAHVEDLIIKTIISAELAIATACKTFVPHRSSCFELYGFDVLIDSTLKPWLLEVNLSPSLACDAPLDLKIKASMISDMFTVVGFVCQDPAQRASTRPIYPTFESSRRNPFQKPQRCRPLSASDAEMKNLVGSAREKGPGKLGGSVLGLSMEEIKVLRRVKEENDRRGGFIRIFPTSETWEIYGSYLEHKTSMNYMLATRLFQDRMTADGAPELKIESLNSKAKLHAALYERKLLSLEVRKRRRRSSRLRAMRPKYPVITQPAEMNVKTETESEEEEEVALDNEDEEQEASQEESAGFLRENQAKYTPSLTALVENTPKENSMKVREWNNKGGHCCKLETQELEPKFNLMQILQDNGNLSKMQARIAFSAYLQHVQIRLMKDSGGQTFSASWAAKEDEQMELVVRFLKRASNNLQHSLRMVLPSRRLALLERRRILAHQLGDFIIVYNKETEQMAEKKSKKKVEEEEEDGVNMENFQEFIRQASEAELEEVLTFYTQKNKSASVFLGTHSKISKNNNNYSDSGAKGDHPETIMEEVKIKPPKQQQTTEIHSDKLSRFTTSAEKEAKLVYSNSSSGPTATLQKIPNTHLSSVTTSDLSPGPCHHSSLSQIPSAIPSMPHQPTILLNTVSASASPCLHPGAQNIPSPTGLPRCRSGSHTIGPFSSFQSAAHIYSQKLSRPSSAKAGSCYLNKHHSGIAKTQKEGEDASLYSKRYNQSMVTAELQRLAEKQAARQYSPSSHINLLTQQVTNLNLATGIINRSSASAPPTLRPIISPSGPTWSTQSDPQAPENHSSSPGSRSLQTGGFAWEGEVENNVYSQATGVVPQHKYHPTAGSYQLQFALQQLEQQKLQSRQLLDQSRARHQAIFGSQTLPNSNLWTMNNGAGCRISSATASGQKPTTLPQKVVPPPSSCASLVPKPPPNHEQVLRRATSQKASKGSSAEGQLNGLQSSLNPAASVPITSSTDPAHTKI
B2: 6-6CL1: STAMP fragment amino acids 623-834, coactivator interaction domain (CID) (protein)
chain: ENTPKENSMKVREWNNKGGHCCKLETQELEPKFNLMQILQDNGNLSKMQARIAFSAYLQHVQIRLMKDSGGQTFSASWAAKEDEQMELVVRFLKRASNNLQHSLRMVLPSRRLALLERRRILAHQLGDFIIVYNKETEQMAEKKSKKKVEEEEEDGVNMENFQEFIRQASEAELEEVLTFYTQKNKSASVFLGTHSKISKNNNNYSDSGAKG

Columns and labels:
thyroid receptor β (TRβ) = target: T1, thyroid receptor β (TRβ); assay: TRβ-mediated induction of reporter in CV-1 cells; assay type: cell-based; details: triiodothyronine; regardless of whether TIF2 is present
Method: FIG. 6D1-2 illustrate the effects of STAMP and TIF2 on androgen receptor (AR, FIG. 6D1) and thyroid receptor β (TRβ, FIG. 6D2) expression. […] Luciferase activities, normalized to the internal Renilla control values, and the fold changes in EC50 and fold induction were determined and plotted as in FIG. 4B.

[1] = target: T2, glucocorticoid receptor (GR); assay: GR-mediated induction of GREtkLUC reporter, transient transfection of CV-1 cells
Method: Triplicate samples of CV-1 cells were transiently transfected with GR (6 ng)±TIF2 (20 ng)±STAMP (160 ng) plasmids, GREtkLUC reporter, and Renilla control plasmid. […] FIG. 4B illustrates the fold changes in GR induction parameters by STAMP and TIF2. […] The fold-increase in each parameter was determined as follows: for EC50s, fold increase=[EC50]GR/[EC50]GR+factor; for partial agonist activity and fold Dex induction, fold increase=activityGR+factor/activityGR). The average fold increases were then plotted±S.E.M (n=4).
CV-1 cells were transiently transfected with GR (6 ng)±TIF2 (20 ng)±STAMP (160 ng) plasmids, GREtkLUC reporter, and Renilla control plasmid, and induced with ethanol± the indicated concentrations of Dex.
Tests were run to determine whether exogenous STAMP can modulate the EC50 of glucocorticoids and the partial agonist activity of antiglucocorticoids in the transient transfection assays where GR induced gene expression from a GREtkLUC reporter.

TIF2(1140C) = target: T3, TIF2(1140C); assay: Mammalian two-hybrid assay in CV-1 cells with TIF2(1140C); assay type: cell-based
Text: FIG. 2A-2C illustrate the isolation and characterization of the partial clone of the protein that binds to TIF2.4. […] Five clones were obtained but only two (clones I and V) contained a protein that was needed for colony growth in the presence of the pSos/TIF2.4 fusion protein. After initial screening, only clone I (also named 6-6CL1) was selected for further investigation. FIG. 2B and FIG. 2C illustrate the selectivity of 6-6CL1 interactions with TIF2.4 in mammalian two-hybrid assays. Triplicate samples of CV-1 cells in 24-well plates were transiently transfected with the indicated GAL-DBD and VP16-AD plasmids along with the GAL4-regulated reporter, pFRLuc. The relative luciferase activity, normalized for the activity of the internal Renilla control, was determined and plotted as the average±S.D. The much lower activity of GAL/TIF2.4m123 was previously shown not to be due to unequal levels of protein expression (He et al., 2002). Similar results were obtained in three additional experiments. […] Triplicate samples of CV-1 cells in 24-well plates were analyzed as in (B&C) after being transiently transfected with GAL±6-6CL1 constructs and pFRLuc reporter along with VP16 chimeras of SRC-1 (FIG. 2D) or TIF2 (FIG. 2E) segments. Similar results for SRC-1 were obtained in two additional experiments (ND=not determined). […]

Molecule | increase of the fold induction with TRβ (thyroid receptor β (TRβ)) | left-shift in the dose-response curve with TRβ (thyroid receptor β (TRβ)) | increase in the partial agonist activity of the antagonist Dex-Mes ([1]; STAMP alone, no exogenous coactivators, low GR, 1 μM Dex-Mes, S.E.M., n=6, P=0.023) [fold] | shift in the dose-response curve to lower steroid concentrations ([1]; STAMP alone, no exogenous coactivators, low GR, Dex, S.E.M., n=6, P=0.0074) [fold] | fold induction by 1 μM Dex, fold increase ([1]; STAMP alone, S.E.M., n=6) [fold] | total amount of gene product induced by 1 μM Dex, fold increase ([1]; STAMP alone, S.E.M., n=6) [fold] | fold induction (above basal activity) with 1 μM Dex ([1]; both with and without added TIF2 (FIG. 4B)) | interaction with TIF2(1140C) (TIF2(1140C))
B1 | little ability | little ability | 1.16±0.05 | 1.54±0.12 | 0.93±0.08 | 1.26±0.05 | increases the fold induction | 
B2 |  |  |  |  |  |  |  | does not interact
